The source of these data is patent US20100173800.

The target in this data set is MuA transposase (bacteriophage Mu) (UniProt P07636). As to the kind of experiment: cell_activity. The conditions noted are these: HeLa electroporation; linear transposon about 100 cfu/ug; 5 bp target duplication in sequenced clones (Table 1).
Sequence of MuA transposase (bacteriophage Mu) (P07636 whole entry): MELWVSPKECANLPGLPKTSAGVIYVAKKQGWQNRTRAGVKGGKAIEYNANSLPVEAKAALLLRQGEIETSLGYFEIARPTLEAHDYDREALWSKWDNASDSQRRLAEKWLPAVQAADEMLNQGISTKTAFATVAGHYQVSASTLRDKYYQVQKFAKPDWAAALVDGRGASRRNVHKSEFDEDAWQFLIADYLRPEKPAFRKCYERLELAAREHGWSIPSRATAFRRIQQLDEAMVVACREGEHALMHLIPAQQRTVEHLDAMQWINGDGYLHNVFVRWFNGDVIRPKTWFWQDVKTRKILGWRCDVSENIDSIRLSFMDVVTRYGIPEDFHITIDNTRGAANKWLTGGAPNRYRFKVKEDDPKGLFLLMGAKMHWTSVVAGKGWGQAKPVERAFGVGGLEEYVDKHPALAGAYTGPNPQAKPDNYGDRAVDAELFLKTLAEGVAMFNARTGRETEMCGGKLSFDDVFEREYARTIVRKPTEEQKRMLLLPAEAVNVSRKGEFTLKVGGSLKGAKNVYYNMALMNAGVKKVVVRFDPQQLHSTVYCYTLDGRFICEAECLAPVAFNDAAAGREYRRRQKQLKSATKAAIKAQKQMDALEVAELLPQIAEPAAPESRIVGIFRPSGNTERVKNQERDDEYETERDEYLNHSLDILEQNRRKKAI

As for “Kan/Neo-Mu transposon (Kan/Neo-LoxP-Mu 2135 bp or Kan/Neo-p15A-Mu 2795 bp)”, the activity amounted to 2400 cfu/µg DNA.
